The record followed here is patent US20050221488.

The data set has as its system Spo11 (Saccharomyces cerevisiae). The experiment in a line: cell_activity. As to conditions: wild-type Spo11 without Gal4BD; DSBs barely detectable.

Consider GAL2 promoter UASGAL sites, for which the activity (% DSB frequency) is under 0.6.
